Results on 1 molecule are retold here after patent US20220332804A1 (CSL INNOVATION, published 2022).

Common to all, as to assay: SPR, KD relative to WT C2;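 note: biacore SPR at 37 °C, anti-C2 mAbs captured via immobilised goat anti-human IgG, C2 alanine or serine surface mutants as analytes, 1:1 model fitted, double-referenced sensograms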
The target of assay [1] is T1, human C2 A709S (human, UniProt P06681 21-752).
T1 sequence: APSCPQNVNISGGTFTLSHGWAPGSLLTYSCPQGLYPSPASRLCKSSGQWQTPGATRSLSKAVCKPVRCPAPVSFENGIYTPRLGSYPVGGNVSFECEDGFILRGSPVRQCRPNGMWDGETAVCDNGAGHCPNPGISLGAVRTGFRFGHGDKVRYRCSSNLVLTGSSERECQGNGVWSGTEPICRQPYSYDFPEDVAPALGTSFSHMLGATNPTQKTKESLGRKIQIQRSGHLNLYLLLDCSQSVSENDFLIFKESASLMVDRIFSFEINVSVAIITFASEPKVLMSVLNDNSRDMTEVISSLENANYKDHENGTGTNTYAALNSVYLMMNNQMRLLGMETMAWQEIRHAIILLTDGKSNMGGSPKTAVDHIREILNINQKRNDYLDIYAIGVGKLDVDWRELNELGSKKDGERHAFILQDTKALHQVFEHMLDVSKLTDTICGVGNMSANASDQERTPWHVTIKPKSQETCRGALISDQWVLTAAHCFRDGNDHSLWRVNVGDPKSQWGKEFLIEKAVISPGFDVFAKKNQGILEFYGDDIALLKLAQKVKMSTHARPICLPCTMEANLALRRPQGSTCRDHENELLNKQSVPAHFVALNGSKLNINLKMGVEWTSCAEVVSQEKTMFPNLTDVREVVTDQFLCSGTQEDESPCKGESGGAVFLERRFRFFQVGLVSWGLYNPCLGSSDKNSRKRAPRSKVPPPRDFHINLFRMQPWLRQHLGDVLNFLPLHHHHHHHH

Assay [2] deals with T2, human C2 L279A (human, UniProt P06681 21-752).
T2 sequence: T1 sequence with L259A, S689A

The target of assay [3] is T3, human C2 D417A (human, UniProt P06681 21-752).
T3 sequence: T1 sequence with D397A, S689A

Assay [4] addresses T4, human C2 H446A (human, UniProt P06681 21-752).
T4 sequence: T1 sequence with H426A, S689A

Numbering of substitutions follows the chain as printed.

B1: RF16-226 (antibody, human IgG4 S228P, lambda)
heavy: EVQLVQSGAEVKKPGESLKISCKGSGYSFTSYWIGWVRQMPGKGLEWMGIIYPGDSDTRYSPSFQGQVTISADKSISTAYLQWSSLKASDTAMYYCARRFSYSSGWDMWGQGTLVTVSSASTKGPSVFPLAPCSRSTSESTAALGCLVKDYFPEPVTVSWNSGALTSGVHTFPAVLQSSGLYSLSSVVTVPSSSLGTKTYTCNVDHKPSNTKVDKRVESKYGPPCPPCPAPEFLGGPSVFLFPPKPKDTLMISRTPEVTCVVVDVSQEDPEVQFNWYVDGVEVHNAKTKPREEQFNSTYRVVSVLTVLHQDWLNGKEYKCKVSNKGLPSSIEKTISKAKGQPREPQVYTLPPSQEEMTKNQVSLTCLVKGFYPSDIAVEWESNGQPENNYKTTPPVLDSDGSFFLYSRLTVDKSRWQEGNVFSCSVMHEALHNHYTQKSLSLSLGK
light: SYELTQPPSVSVSPGQTARITCSGDALTSKYVAWYQQKSGLAPLLVIYEDTRRPSGIPAKFSGSSSGSVATLTISGAHGDDEADYYCYSTDASGHQRVFGGGTKLTVLSQPKAAPSVTLFPPSSEELQANKATLVCLISDFYPGAVTVAWKADGSPVKAGVETTKPSKQSNNKYAASSYLSLTPEQWKSHRSYSCQVTHEGSTVEKTVAPTECS
notes: pH-dependent anti-C2 antibody from a phage display library; also called WT
For B1, the Fold diff worked out at 13 fold in assay [1], 5 fold in assay [2], 2 fold in assay [3] and 2 fold in assay [4].
